Results on one molecule are retold here after PMC11946513 (The Journal of Biological Chemistry, 2025).

The target in the assay is T1, KAT6A MYST domain (KAT6A 501-784) (human, UniProt Q92794 501-784, autoacetylated K604 (as seen in the structure)).
T1 construct: KAT6A (MOZ), human, acetyltransferase (MYST) domain, residues 501-784, NCBI NP_006757.2; also called pHis-MYST domain; not shown: polyhistidine, N-terminal, cleaved
As to the kind of experiment: crystal structure; KAT6A MYST domain at 8 mg/ml complexed with H3K14-CoA in a 1:10 M ratio, 4 h at 4 °C; sitting drop, 1.25 M NH4SO4, 0.28 M NaCl, 0.1 M HEPES pH 6.4, 21 °C. The settings on record: both partners purified.

T1 sequence (Q92794 501-784): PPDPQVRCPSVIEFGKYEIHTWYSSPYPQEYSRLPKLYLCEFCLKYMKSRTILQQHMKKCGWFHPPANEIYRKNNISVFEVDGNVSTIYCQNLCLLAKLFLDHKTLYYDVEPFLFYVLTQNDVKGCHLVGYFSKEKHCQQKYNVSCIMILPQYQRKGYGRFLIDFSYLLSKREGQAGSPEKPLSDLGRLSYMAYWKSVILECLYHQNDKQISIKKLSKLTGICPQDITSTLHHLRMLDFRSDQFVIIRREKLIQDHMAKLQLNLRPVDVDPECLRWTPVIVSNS

B1: H3K14-CoA bisubstrate inhibitor (peptide)
peptide: QTARKSTGGKAPRKQLATK
modifications: ε-amino group of K14 covalently attached to CoA through a non-native acetyl bridge; 6-aminohexanoic acid (Ahx) linker on the N-terminus
notes: histone H3 tail, residues 5-23; Made on Rink Amide resin, so the C-terminus is probably an amide (surmised); Only residues 10-17 are resolved in the structure; also called peptidyl-CoA analogue; H3 (5-23) with K14 attached to CoA; source: synthetic peptide (manual Fmoc synthesis on Nova PEG Rink Amide, HPLC purified, coupled to Coenzyme A)
In the case of B1, the binding result is given as “binds”.
